Test results published in publication PMC8809517, “Cofactor-independent RNA editing by a synthetic S-type PPR protein”.

T1: GFP-9S library array, motif 4 ND N98T;D124E (synthetic construct, N98T;D124E)
T1 chain: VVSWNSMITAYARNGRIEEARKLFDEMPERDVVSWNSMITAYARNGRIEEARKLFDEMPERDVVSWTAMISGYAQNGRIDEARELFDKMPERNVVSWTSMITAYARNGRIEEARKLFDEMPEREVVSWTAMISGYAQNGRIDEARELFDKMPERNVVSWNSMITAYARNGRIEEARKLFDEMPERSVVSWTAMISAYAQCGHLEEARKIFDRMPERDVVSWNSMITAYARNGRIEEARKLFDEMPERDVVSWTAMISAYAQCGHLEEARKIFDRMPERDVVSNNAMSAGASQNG

T2: GFP-9S library array, motif 4 ND N98Y;D124Q (synthetic construct, N98Y;D124Q)
T2 chain: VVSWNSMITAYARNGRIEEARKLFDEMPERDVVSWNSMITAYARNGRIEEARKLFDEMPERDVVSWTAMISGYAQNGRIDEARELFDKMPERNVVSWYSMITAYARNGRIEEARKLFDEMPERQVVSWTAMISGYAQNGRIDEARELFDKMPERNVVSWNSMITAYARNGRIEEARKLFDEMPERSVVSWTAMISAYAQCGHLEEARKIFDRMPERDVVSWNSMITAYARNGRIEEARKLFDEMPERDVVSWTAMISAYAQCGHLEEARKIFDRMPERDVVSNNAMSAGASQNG

T3: GFP-9S library array, motif 4 ND N98D;D124W (synthetic construct, N98D;D124W)
T3 chain: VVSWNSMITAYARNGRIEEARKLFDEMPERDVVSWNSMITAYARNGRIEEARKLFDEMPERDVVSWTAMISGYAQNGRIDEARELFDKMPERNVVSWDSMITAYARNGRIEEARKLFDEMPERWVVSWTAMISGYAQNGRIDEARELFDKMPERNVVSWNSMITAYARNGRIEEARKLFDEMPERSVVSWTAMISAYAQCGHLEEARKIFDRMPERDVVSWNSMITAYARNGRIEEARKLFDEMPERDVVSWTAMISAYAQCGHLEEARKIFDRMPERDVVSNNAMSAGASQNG

T4: GFP-9S library array, motif 4 ND N98H;D124L (synthetic construct, N98H;D124L)
T4 chain: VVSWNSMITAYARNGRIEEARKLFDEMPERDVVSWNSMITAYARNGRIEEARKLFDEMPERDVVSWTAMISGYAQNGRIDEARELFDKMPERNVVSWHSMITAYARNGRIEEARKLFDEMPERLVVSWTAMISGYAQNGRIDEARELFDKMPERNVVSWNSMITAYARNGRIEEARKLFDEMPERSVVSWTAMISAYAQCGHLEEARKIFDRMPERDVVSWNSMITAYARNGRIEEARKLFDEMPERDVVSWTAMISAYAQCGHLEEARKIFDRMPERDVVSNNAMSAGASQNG

T5: GFP-9S library array, motif 4 ND N98P;D124N (synthetic construct, N98P;D124N)
T5 chain: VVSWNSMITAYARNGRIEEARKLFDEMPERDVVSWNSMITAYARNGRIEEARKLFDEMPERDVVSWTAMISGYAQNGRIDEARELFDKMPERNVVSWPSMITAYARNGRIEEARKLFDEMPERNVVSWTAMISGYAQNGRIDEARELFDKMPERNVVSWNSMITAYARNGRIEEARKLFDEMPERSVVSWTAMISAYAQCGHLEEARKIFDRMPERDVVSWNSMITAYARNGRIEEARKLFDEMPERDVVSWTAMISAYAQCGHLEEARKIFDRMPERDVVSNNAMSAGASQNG


What was measured:
Test in all cases: high-throughput RNA pulldown from lysate on Ni-NTA beads; HRP: 50 mM Tris pH 8, 150 mM NaCl, 1 mM beta-mercaptoethanol, 50 ug/ml BSA, 3 ug/ml yeast RNA, 0.5% heparin; ITC and FP: Tris pH 8, 200 mM KCl, 5% glycerol; MST: 50 mM Tris pH 8, 200 mM NaCl, 1 mM DTT, BSA, heparin, 0.05% Tween 20
Details in all cases: tags: N-terminal His-eGFP
[1] = target: T1, GFP-9S library array, motif 4 ND …
[2] = target: T2, GFP-9S library array, motif 4 ND …
[3] = target: T3, GFP-9S library array, motif 4 ND …
[4] = target: T4, GFP-9S library array, motif 4 ND …
[5] = target: T5, GFP-9S library array, motif 4 ND …

Row | Binder | Kd ([1]; label: 5' Cy5) | Kd ([2]; label: 5' Cy5) | Kd ([3]; label: 5' Cy5) | Kd ([4]; label: 5' Cy5) | Kd ([5]; label: 5' Cy5) | Kd ([1]; label: 5' IRDye 800CW) | Kd ([2]; label: 5' IRDye 800CW) | Kd ([3]; label: 5' IRDye 800CW) | Kd ([4]; label: 5' IRDye 800CW) | Kd ([5]; label: 5' IRDye 800CW)
1 | AUUAGACGUGA (ssRNA) [Cy5-rpoA-G] | 13.2 nM | 49.8 nM | 178 nM | 55.6 nM | 164 nM |  |  |  |  | 
2 | AUUAUACGUGA (ssRNA) [IR-rpoA-U] |  |  |  |  |  | 134 nM | 103 nM | 202 nM | 32.7 nM | 136 nM
3 | AUUAAACGUGA (ssRNA) [IR-rpoA-A] |  |  |  |  |  | 185 nM | 162 nM | 572 nM | 82.1 nM | 151 nM
4 | AUUACACGUGA (ssRNA) [Cy5-rpoA] | 258 nM | 39.5 nM | 134 nM | 60.1 nM | 172 nM |  |  |  |  | 
